From paper PMC7325057 come the findings set out here.

One may read the Km as the concentration of substrate that gives half-maximal velocity. The kcat is the number of substrate molecules converted per active site and unit of time at saturation. The term kcat/Km denotes the turnover number divided by the Michaelis constant.

The data set has as its system CC(=O)N(O)CCCC[C@H](N)C(=O)O. Put plainly: purified protein. To be noted: 2 mM citrate, 2 mM ATP, 15 mM MgCl2, pH 7.5, 37 °C, apparent.

Take “hvKP IucA (Klebsiella pneumoniae subsp. pneumoniae)”: the Michaelis-Menten constant (Km) amounted to 790 ± 20 µM, the kcat turned out to be 0.85 ± 0.02 s⁻¹ and the specificity constant (kcat/Km) came to 1080 M⁻¹ s⁻¹.
